# Reference: patent publication US20200277397A1 (Genmab, published 2020)
# Where two headings read alike, the source gives them in different places.
# T1: full length cynomolgus monkey 5T4 (cynomolgus monkey, UniProt Q4R8Y9 35-420)
# T1 construct: Uniprot Q4R8Y9; also called cynomolgus monkey 5T4 on HEK-293 cells
# T1 sequence: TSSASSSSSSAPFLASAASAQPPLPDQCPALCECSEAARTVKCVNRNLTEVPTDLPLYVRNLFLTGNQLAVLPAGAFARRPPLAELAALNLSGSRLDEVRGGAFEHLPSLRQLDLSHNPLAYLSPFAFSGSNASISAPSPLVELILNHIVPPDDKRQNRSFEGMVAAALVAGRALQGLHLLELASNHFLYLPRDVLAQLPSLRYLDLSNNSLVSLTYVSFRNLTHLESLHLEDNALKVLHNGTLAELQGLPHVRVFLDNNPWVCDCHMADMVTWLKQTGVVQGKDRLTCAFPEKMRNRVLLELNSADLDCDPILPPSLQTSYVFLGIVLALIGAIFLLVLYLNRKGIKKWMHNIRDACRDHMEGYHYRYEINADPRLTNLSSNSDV
# T2: full length human 5T4 (human, UniProt Q13641 32-420)
# T2 construct: Uniprot Q13641; Used here also for endogenous 5T4 on the human tumour cell lines
# T2 sequence: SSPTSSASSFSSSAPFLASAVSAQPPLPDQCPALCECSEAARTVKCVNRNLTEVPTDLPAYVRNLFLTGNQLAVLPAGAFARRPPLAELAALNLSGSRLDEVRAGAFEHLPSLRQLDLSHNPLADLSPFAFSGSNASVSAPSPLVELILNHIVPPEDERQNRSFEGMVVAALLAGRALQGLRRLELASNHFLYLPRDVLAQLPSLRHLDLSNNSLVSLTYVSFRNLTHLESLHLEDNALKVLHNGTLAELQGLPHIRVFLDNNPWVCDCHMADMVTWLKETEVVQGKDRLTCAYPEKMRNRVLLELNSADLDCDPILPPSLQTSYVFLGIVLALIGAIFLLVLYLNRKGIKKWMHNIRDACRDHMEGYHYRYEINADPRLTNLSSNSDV
# Experiments:
# [1] = target: T1, full length cynomolgus monkey 5T4; assay: flow cytometry, HEK-293 cells transfected with cynomolgus monkey 5T4 (right panel), PE anti-human IgG F(ab')2, MFI PE
# full length human 5T4 [2] = target: T2, full length human 5T4; assay: flow cytometry, HeLa cells, PE anti-human IgG F(ab')2, MFI PE
# [3] = target: T1, full length cynomolgus monkey 5T4; assay: flow cytometry, HEK-293 cells transfected with cynomolgus monkey 5T4 (right panel), PE anti-human IgG F(ab')2, MFI PE; remark: listed apart in the source
# full length human 5T4 [4] = target: T2, full length human 5T4; assay: flow cytometry, HEK-293 cells transfected with human 5T4 (left panel), PE anti-human IgG F(ab')2, MFI PE
# full length human 5T4 [5] = target: T2, full length human 5T4; assay: as above; remark: listed apart in the source
# [6] = target: T1, full length cynomolgus monkey 5T4; assay: flow cytometry, HEK-293 cells transfected with cynomolgus monkey 5T4 (right panel), PE anti-human IgG F(ab')2, MFI PE; remark: listed apart in the source
# [7] = target: T1, full length cynomolgus monkey 5T4; assay: as above; remark: listed apart in the source
binder,measurement,setting,value
bsIgG1-huCD3-H101G-FEALx5T4-A1-FEAR (bispecific antibody) heavy 1: not shown VL 1: not shown heavy 2: QIQLVQSGPELKKPGETVKISCKASGYTFTNFGMNWVKQGPGEGLKWMGWINTNTGEPRYAEEFKGRFAFSLETTASTAYLQINNLKNEDTATYFCARDWDGAYFFDYWGQGTTLTVSSASTKGPSVFPLAPSSKSTSGGTAALGCLVKDYFPEPVTVSWNSGALTSGVHTFPAVLQSSGLYSLSSVVTVPSSSLGTQTYICNVNHKPSNTKVDKRVEPKSCDKTHTCPPCPAPEFEGGPSVFLFPPKPKDTLMISRTPEVTCVVVAVSHEDPEVKFNWYVDGVEVHNAKTKPREEQYNSTYRVVSVLTVLHQDWLNGKEYKCKVSNKALPAPIEKTISKAKGQPREPQVYTLPPSREEMTKNQVSLTCLVKGFYPSDIAVEWESNGQPENNYKTTPPVLDSDGSFFLYSRLTVDKSRWQQGNVFSCSVMHEALHNHYTQKSLSLSPGK VL 2: SIVMTQTPKFLLVSAGDRVTITCKASQSVSNDVAWYQQKPGQSPKLLINFATNRYTGVPNRFTGSGYGTDFTFTISTVQAEDLALYFCQQDYSSPWTFGGGTKLEIK,binding result,[1],binds
same,binding result,full length human 5T4 [2],binds
bsIgG1-huCD3-H101G-FEALx5T4-076-FEAR (bispecific antibody) heavy 1: not shown VL: not shown heavy 2: QVQLVQSGAEVKKPGASVKVSCKASGYTFTSYGISWVRQAPGQGLEWMGWISAYNGNTNYAQKLQGRVTMTTDTSTRTAYMELRSLRSDDTAVYYCARDPGYFDWLYGDYWGQGTLVTVSSASTKGPSVFPLAPSSKSTSGGTAALGCLVKDYFPEPVTVSWNSGALTSGVHTFPAVLQSSGLYSLSSVVTVPSSSLGTQTYICNVNHKPSNTKVDKRVEPKSCDKTHTCPPCPAPEFEGGPSVFLFPPKPKDTLMISRTPEVTCVVVAVSHEDPEVKFNWYVDGVEVHNAKTKPREEQYNSTYRVVSVLTVLHQDWLNGKEYKCKVSNKALPAPIEKTISKAKGQPREPQVYTLPPSREEMTKNQVSLTCLVKGFYPSDIAVEWESNGQPENNYKTTPPVLDSDGSFFLYSRLTVDKSRWQQGNVFSCSVMHEALHNHYTQKSLSLSPGK light: not shown,EC50 (read off the curve),[3],~0.4 µg/mL
same,binding result,full length human 5T4 [4],binds
bsIgG1-huCD3-H101G-FEALx5T4-085-FEAR (bispecific antibody) heavy 1: not shown VL: not shown heavy 2: EVQLLESGGGLVQPGGSLRLSCAASGFTFSSYAMSWVRQAPGKGLEWVSAISGSGGSTYNADSVKGRFTIFRDNSKNTLYLHMNSLRAEDTAVYYCARDPGYNNVEYLDHWGQGTLVTVSSASTKGPSVFPLAPSSKSTSGGTAALGCLVKDYFPEPVTVSWNSGALTSGVHTFPAVLQSSGLYSLSSVVTVPSSSLGTQTYICNVNHKPSNTKVDKRVEPKSCDKTHTCPPCPAPEFEGGPSVFLFPPKPKDTLMISRTPEVTCVVVAVSHEDPEVKFNWYVDGVEVHNAKTKPREEQYNSTYRVVSVLTVLHQDWLNGKEYKCKVSNKALPAPIEKTISKAKGQPREPQVYTLPPSREEMTKNQVSLTCLVKGFYPSDIAVEWESNGQPENNYKTTPPVLDSDGSFFLYSRLTVDKSRWQQGNVFSCSVMHEALHNHYTQKSLSLSPGK light: not shown,EC50 (read off the curve),full length human 5T4 [5],~0.5 µg/mL
same,EC50 (read off the curve),[6],~0.4 µg/mL
bsIgG1-huCD3-H101G-FEALx5T4-127-FEAR (bispecific antibody) heavy 1: not shown VL: not shown heavy 2: EVQLLESRGGLVQPGGSLRLSCAASGFTFSSYAMSWVRQAPGKGLEWVSTISGSGGSTYYADSVKGRFTISRDNSKKTLYLQMNSLRAEDTAVYYCAKDWGSGSYPAEYFQHWGQGTLVTVSSASTKGPSVFPLAPSSKSTSGGTAALGCLVKDYFPEPVTVSWNSGALTSGVHTFPAVLQSSGLYSLSSVVTVPSSSLGTQTYICNVNHKPSNTKVDKRVEPKSCDKTHTCPPCPAPEFEGGPSVFLFPPKPKDTLMISRTPEVTCVVVAVSHEDPEVKFNWYVDGVEVHNAKTKPREEQYNSTYRVVSVLTVLHQDWLNGKEYKCKVSNKALPAPIEKTISKAKGQPREPQVYTLPPSREEMTKNQVSLTCLVKGFYPSDIAVEWESNGQPENNYKTTPPVLDSDGSFFLYSRLTVDKSRWQQGNVFSCSVMHEALHNHYTQKSLSLSPGK light: not shown,EC50 (read off the curve),[7],~0.1 µg/mL
